Assay results reported in patent publication US20220411483A1 (Chugai, published 2022).
Substitutions are numbered along the chain they refer to.

T1: FcγRIIa R type extracellular domain with C-terminal His tag (human, UniProt P12318 34-217)
T1 construct: extracellular domain; also called FcgRIIaR; not shown: His tag at the C terminus
T1 sequence (looked up): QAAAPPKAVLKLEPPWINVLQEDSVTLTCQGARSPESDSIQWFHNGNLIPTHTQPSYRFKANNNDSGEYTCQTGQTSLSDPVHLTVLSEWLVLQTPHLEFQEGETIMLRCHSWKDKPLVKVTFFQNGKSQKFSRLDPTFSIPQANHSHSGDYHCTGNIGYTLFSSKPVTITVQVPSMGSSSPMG

T2: FcγRIIb extracellular domain with C-terminal His tag (human, UniProt P31994 43-217)
T2 construct: extracellular domain; also called FcgRIIb; not shown: His tag at the C terminus
T2 sequence (looked up): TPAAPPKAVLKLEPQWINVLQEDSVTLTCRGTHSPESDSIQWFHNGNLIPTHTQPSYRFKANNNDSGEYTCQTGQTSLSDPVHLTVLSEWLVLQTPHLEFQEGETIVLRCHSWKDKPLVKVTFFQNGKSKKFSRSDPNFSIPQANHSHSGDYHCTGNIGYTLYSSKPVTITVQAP

T3: FcgRIIb (human, UniProt P31994 43-217)
T3 construct: extracellular domain; also called FcγRIIb
T3 sequence (looked up): T2 sequence (looked up)

T4: FcgRIIaR (human, UniProt P12318 34-217)
T4 construct: extracellular domain; also called FcγRIIa R type; FcγRIIa (R type)
T4 sequence (looked up): T1 sequence (looked up)

B1: IL6R-BP262/IL6R-L (antibody, human IgG1, kappa, name in EU numbering)
heavy: QVQLQESGPGLVKPSETLSLTCAVSGHSISHDHAWSWVRQPPGEGLEWIGFISYSGITNYNPSLQGRVTISRDNSKNTLYLQMNSLRAEDTAVYYCARSLARTTAMDYWGEGTLVTVSSASTKGPSVFPLAPSSKSTSGGTAALGCLVKDYFPEPVTVSWNSGALTSGVHTFPAVLQSSGLYSLSSVVTVPSSSLGTQTYICNVNHKPSNTKVDKKVEPKSCDKTHTCPPCPAPELLGDDSVFLFPPKPKDTLMISRTPEVTCVVVDVSEEDGEVKFNWYVDGVEVHNAKTKPREEQYNSTYRVVSVLTVLHQDWLNGKEYKCKVSNKALPAPIEKTISKAKGQPREPQVYTLPPSRDELTKNQVSLTCLVKGFYPSDIAVEWESNGQPENNYKTTPPVLDSDGSFFLYSKLTVDKSRWQQGNVFSCSVMHEALHNHYTQESLSLSP
light: not shown
notes: human IgG1
B2: IL6R-BP269/IL6R-L (antibody, human IgG1, kappa, name in EU numbering)
heavy: B1 heavy with Y298D
light: not shown
notes: human IgG1
B3: IL6R-P647/IL6R-L (antibody, human IgG1, kappa)
heavy: B1 heavy with E235D, V266I, D267R, S269A, Y298D, A332R, P398M, E441K
light: not shown
B4: IL6R-P634/IL6R-L (antibody, human IgG1, kappa)
heavy: B1 heavy with E235D, D239G, V266I, D267V, S269A, E441K
light: not shown
B5: IL6R-P641/IL6R-L (antibody, human IgG1, kappa)
heavy: B1 heavy with E235D, L236R, V266I, S269A, Y298D, A332R, P398M, E441K
light: not shown
B6: IL6R-P700/IL6R-L (antibody, human IgG1, kappa)
heavy: B1 heavy with E235D, L236A, D239G, V266I, S269R, E441K
light: not shown
B7: IL6R-P607/IL6R-L (antibody, human IgG1, kappa)
heavy: B1 heavy with E235D, S241K, V266I, S269A, Y298D, A332R, P398M, E441K
light: not shown
B8: IL6R-P642/IL6R-L (antibody, human IgG1, kappa)
heavy: B1 heavy with E235D, G238Q, V266I, S269A, Y298D, A332R, P398M, E441K
light: not shown
B9: IL6R-P638/IL6R-L (antibody, human IgG1, kappa)
heavy: B1 heavy with E235D, L236H, V266I, S269A, Y298D, A332R, P398M, E441K
light: not shown
B10: IL6R-P614/IL6R-L (antibody, human IgG1, kappa)
heavy: B1 heavy with E235D, L237A, V266I, S269A, Y298D, A332R, P398M, E441K
light: not shown
B11: IL6R-P644/IL6R-L (antibody, human IgG1, kappa)
heavy: B1 heavy with E235D, D239K, V266I, S269A, Y298D, A332R, P398M, E441K
light: not shown
B12: IL6R-P696/IL6R-L (antibody, human IgG1, kappa)
heavy: B1 heavy with E235D, D239R, V266I, S269R, E441K
light: not shown
B13: IL6R-P646/IL6R-L (antibody, human IgG1, kappa)
heavy: B1 heavy with E235D, V266I, D267N, S269A, Y298D, A332R, P398M, E441K
light: not shown
B14: IL6R-P651/IL6R-L (antibody, human IgG1, kappa)
heavy: B1 heavy with E235D, V266I, S269R, Y298D, A332R, P398M, E441K
light: not shown
B15: IL6R-P648/IL6R-L (antibody, human IgG1, kappa)
heavy: B1 heavy with E235D, V266I, D267S, S269A, Y298D, A332R, P398M, E441K
light: not shown
B16: IL6R-P697/IL6R-L (antibody, human IgG1, kappa)
heavy: B1 heavy with E235D, D239K, V266I, S269R, E441K
light: not shown
B17: IL6R-P650/IL6R-L (antibody, human IgG1, kappa)
heavy: B1 heavy with E235D, V266I, S269K, Y298D, A332R, P398M, E441K
light: not shown
B18: IL6R-P664/IL6R-L (antibody, human IgG1, kappa, N297A)
heavy: B1 heavy with E235D, D239G, V266I, S269A, N299A, E441K
light: not shown

target: T1, FcγRIIa R type extracellular domain …; test: SPR; KD of IL6R-B3/IL6R-L divided by KD of variant

Binder	Relative FcgRIIaR-binding Activity
B1	0.5
B2	0.5

target: T2, FcγRIIb extracellular domain with …; test: SPR; KD of IL6R-B3/IL6R-L divided by KD of variant

Binder	Relative FcgRIIb-binding Activity
B1	25.8
B2	27.3

target: T3, FcgRIIb; test: SPR, amount bound per captured antibody

Binder	Relative FcgRIIb-binding Activity [IL6R-G1d/IL6R-L=100]
B3	15.2
B4	6.5
B5	170
B6	38.1
B7	21.8
B8	175
B9	176
B10	176
B11	171
B12	73.7
B13	175
B14	168
B15	152
B16	28.7
B17	155
B18	33.9

target: T4, FcgRIIaR; test: SPR, amount bound per captured antibody

Binder	Relative FcgRIIaR-binding Activity [IL6R-G1d/IL6R-L=100]
B3	5.6
B4	2.8
B5	61.5
B6	5.8
B7	6.1
B8	103
B9	78.3
B10	69.5
B11	34
B12	6.1
B13	72.5
B14	75.7
B15	40.3
B16	3.6
B17	41.6
B18	10.8

target: T5, FcγRIa extracellular domain with C-terminal His tag (human, UniProt P12314 16-292); test: SPR, antibody captured, FcgR analyte
T5 construct: also called FcgRIa; CD64; not shown: His tag at the C terminus
T5 sequence (P12314 16-292): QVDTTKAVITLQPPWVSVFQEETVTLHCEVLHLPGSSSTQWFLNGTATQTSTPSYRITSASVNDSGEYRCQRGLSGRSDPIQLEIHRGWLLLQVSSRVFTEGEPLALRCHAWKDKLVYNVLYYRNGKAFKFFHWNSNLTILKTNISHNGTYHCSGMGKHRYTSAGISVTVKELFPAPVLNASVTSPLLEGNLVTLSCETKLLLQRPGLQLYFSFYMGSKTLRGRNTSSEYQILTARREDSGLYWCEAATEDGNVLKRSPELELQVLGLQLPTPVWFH

Binder	Kd [nM]
B1	10
B2	14

target: T1, FcγRIIa R type extracellular domain …; test: SPR, antibody captured, FcgR analyte

Binder	Kd [nM]
B1	2000
B2	2200

target: T2, FcγRIIb extracellular domain with …; test: SPR, antibody captured, FcgR analyte

Binder	Kd [nM]
B1	120
B2	110
